In the supplement of paper PMC6755084 one finds fraction ligated data, which are given here for 83 variants.

B1: F1*; the commonest letter at each place (parent)
chain: GAGACCGCAACTGAAAAGTTGTTATCACTTGTCGTAAGACACTTTGGATGGGTTGAAGTTCTGCACGTAGAAGCAAAAGGC
B2: minF1; a variant is named by its letters at N, in order (parent)
chain: GAGACCGCAACTGAAAAGTTGTTNNNNAANNNNGGNTNNATTTCTGCACGTAGAAGCAAAAGGC

In one data set the parent is B1. In words: fraction ligated after 30 min (ligated reads / total reads); higher = more ligase activity. To be noted: with F1*sub RNA substrate (template-directed ligation), 42 °C. Put shortly:
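The ligase ribozyme variants were produced by PCR amplification of oligo-pool templates, T7 transcription and purification on gel. Their ligated and unligated forms were gel-separated, then reverse transcribed with barcoded primers before MiSeq sequencing. Core bases were filtered at a quality of ≥20, and fraction ligated per variant was ligated reads over total reads.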
For the variant T44G A48C, the fraction ligated came to 0.757.
Turning to A36C G38T, the fraction ligated is 0.838.
The same measure, in the same setting: for T29C G50T the value was 0.41; for A24T A41G, 0.72; for A24G T29C, 0.741.
With T44C T49G, the fraction ligated was found to be 0.772.
Take G34T A39T: the fraction ligated was found to be 0.804.
As for T30C C33G, the fraction ligated is 0.837.
The same measure, in the same setting: for A39T G50C the value was 0.0837.
On the same count and under the same terms, for T45G G50C the value was 0.0186.
With G38C A39T, the fraction ligated is 0.806.
Take T23A G31A: the fraction ligated amounted to 0.816.
C26A A37C: the fraction ligated amounted to 0.781.
Turning to T30G T44C, the fraction ligated came to 0.808.
The same measure, in the same setting: for G34A A39G the value was 0.835; for T49C A56C, 0.0481; for A39C T44A, 0.799.
As to T25A A39C, the fraction ligated stood at 0.223.
On to C28T G34T, for which the fraction ligated is 0.802.
Regarding A39T, the fraction ligated turned out to be 0.833.
As for G31A A41T, the fraction ligated is 0.81.
Consider T23C C28G, for which the fraction ligated was found to be 0.732.
Turning to G34C A36G, the fraction ligated was 0.824.
Same read-out and setting: for A41G G55A the value was 0.785.
On to A24T G50C, for which the fraction ligated came out at 0.295.
With C42T T44A, the fraction ligated came out at 0.862.
On the same count and under the same terms, for G46A G47C the value was 0.146; for G38C A48G, 0.53.
Still for that read-out and setting: for A39C T45C the value was 0.634; for T25C A56G, 0.0517; for T23A T49A, 0.791.
As to A27C G31C, the fraction ligated stood at 0.835.
Take A39C A41G: the fraction ligated amounted to 0.741.
Same read-out and setting: for C42A T49G the value was 0.789; for T45G A57T, 0.8; for T25G A48C, 0.819.
On to T30A T44G, for which the fraction ligated is 0.825.
Regarding A37C A41T, the fraction ligated is 0.816.
Regarding C28T T32A, the fraction ligated came to 0.822.
The same measure, in the same setting: for A39T T45C the value was 0.676.
On the same count and under the same terms, then G31C G50C, with 0.0327; and T29C G38T, with 0.816; and T32C G34T, with 0.759.
Still for that read-out and setting: for A36C G50T the value was 0.746; for A27C A56G, 0.742; for A27C G38T, 0.837.
With A37T C42T, the fraction ligated is 0.858.

The variants in the next data set derive from B2. In words: fraction ligated after 30 min (ligated reads / total reads); higher = more ligase activity. The note with it: with F1*subA RNA substrate (template-directed ligation), 42 °C. The method, then: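 Chip-synthesised pool of minF1 ligase ribozyme variants (single and double substitutions, single to quadruple deletions, bulge and P2 designed variants) was transcribed with T7 and reacted as a pool with excess substrate F1*subA for 30 min at 42 C in 50 mM EPPS pH 8.5, 25 mM MgCl2. Ligated and unligated RNAs were separated by PAGE, barcoded by RT and deep sequenced; fraction ligated = ligated reads / total reads, relative activity = FL / FL of wild-type minF1 (0.76); sequencing FL correlated with PAGE (R2 = 0.98). Sequences are the DNA template of the ribozyme.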
AAGATGGAGTA: the fraction ligated came out at 0.00181.
Regarding AAGATGGAGTG, the fraction ligated is 0.00495.
For TAGATGATTGA, the fraction ligated turned out to be 0.00145.
On to CAGAGGATGTA A29T, for which the fraction ligated stood at 0.00385.
The same measure, in the same setting: then CAAAGGATGTA A29T, with 0.00185.
On the same count and under the same terms, for TCAATGGAGTG the value was 0.00581.
Same read-out and setting: then TCAATGGAGTA, with 0.00279.
With TAGATGGAGTT T23A G34T T37G, the fraction ligated is 0.000868.
On to AAGATGGATGA, for which the fraction ligated was 0.00526.
Still for that read-out and setting: for CAGAGGTGTGA A29T the value was 0.00368.
As for CAGAGATGTGA T23A, the fraction ligated was 0.00241.
As for TAGAGATGTGA A28T A29G, the fraction ligated stood at 0.00491.
As to CAGAGGATGTA T23A A29T, the fraction ligated was found to be 0.00576.
As for TAGATGGAGTT T23A G34T T37G A40G, the fraction ligated was 0.00177.
Still for that read-out and setting: for CAAAGATGTGA T23A A28T A29G the value was 0.0035; for TAGAGGATTGA A29T, 0.00809; for CAGATGGATGA, 0.00376.
In the case of TCAAGGAGTGA, the fraction ligated was found to be 0.000917.
Take TCAAGATGTGA T23A A28T A29G: the fraction ligated stood at 0.00482.
On the same count and under the same terms, then CAGATGGTGTA T23A, with 0.00242; and TCAAGGTGTGA A29T, with 0.00119.
Regarding TCAATGGAGTT G34T T37G A40G, the fraction ligated was found to be 0.00127.
Consider TAGATGGATGA, for which the fraction ligated was 0.00101.
As to ACAATGGAGTT G34T T37G, the fraction ligated was 0.00166.
On to CAGAGGTGTGA, for which the fraction ligated amounted to 0.00486.
Turning to AAAAGATGTGA T23A A28T A29G, the fraction ligated is 0.00631.
For TAGATGGAGTA G34T, the fraction ligated was 0.00584.
Turning to TAGAGGATGTG T23A, the fraction ligated turned out to be 0.00675.
On the same count and under the same terms, then TAAAGGATGTG A29T, with 0.00445; and AAGAGGATTGA, with 0.00146.
As to TCAATGGTGTA T23A, the fraction ligated was 0.00153.
Regarding AAGAGGATGTA, the fraction ligated was 0.000999.
As to AAGAGGATGTG, the fraction ligated is 0.00366.
Take CAGAGGATGTA T23A: the fraction ligated turned out to be 0.00339.
On the same count and under the same terms, then TCAAGGAGTGA T23A A29T, with 0.00288.
On the same count and under the same terms, for ACAAGGATGTA A29T the value was 0.00548.
